Test results taken from publication doi:10.1101/2022.05.16.492059 (bioRxiv, 2022).

Target: the molecule itself
Assay: SEC-MALS

B1: PGL-3 (1-452) (domain or fragment, C. elegans, UniProt G5EBV6 1-452, looked up)
chain: MEANKRQIVEVDGIKSYFFPHLAHYLASNDELLVNNIAQANKLAAFVLGATDKRPSNEEIAEMILPNDSSAYVLAAGMDVCLILGDDFRPKFDSGAEKLSQLGQAHDLAPIIDDEKKISMLARKTKLKKSNDAKILQVLLKVLGAEEAEEKFVELSELSSALDLDFDVYVLAKLLGFASEELQEEIEIIRDNVTDAFEACKPLLKKLMIEGPKIDSVDPFTQLLLTPQEESIEKAVSHIVARFEEASAVEDDESLVLKSQLGYQLIFLVVRSLADGKRDASRTIQSLMPSSVRAEVFPGLQRSVFKSAVFLASHIIQVFLGSMKSFEDWAFVGLAEDLESTWRRRAIAELLKKFRISVLEQCFSQPIPLLPQSELNNETVIENVNNALQFALWITEFYGSESEKKSLNQLQFLSPKSKNLLVDSFKKFAQGLDSKDHVNRIIESLEKSSSSE
B1 was tested, and the “stoichiometry N” value was 2.
